Data published in patent US20110223188A1, “TARGETED COSTIMULATORY POLYPEPTIDES AND METHODS OF USE TO TREAT CANCER” (priority 2008, published 2011).

B1: Murine B7-DC-Ig: murine B7-DC fusion protein: B7-DC extracellular domain fused to murine immunoglobulin Cγ2a hinge, CH2, CH3 (likely SEQ ID NO:80/81) (protein)
chain: MLLLLPILNLSLQLHPVAALFTVTAPKEVYTVDVGSSVSLECDFDRRECTELEGIRASLQKVENDTSLQSERATLLEEQLPLGKALFHIPSVQVRDSGQYRCLVICGAAWDYKYLTVKVKASYMRIDTRILEVPGTGEVQLTCQARGYPLAEVSWQNVSVPANTSHIRTPEGLYQVTSVLRLKPQPSRNFSCMFWNAHMKELTSAIIDPLSRMEPKVPRTWEPRGPTIKPCPPCKCPAPNLLGGPSVFIFPPKIKDVLMISLSPIVTCVVVDVSEDDPDVQISWFVNNVEVHTAQTQTHREDYNSTLRVVSALPIQHQDWMSGKEFKCKVNNKDLPAPIERTISKPKGSVRAPQVYVLPPPEEEMTKKQVTLTCMVTDFMPEDIYVEWTNNGKTELNYKNTEPVLDSDGSYFMYSKLRVEKKNWVERNSYSCSVVHEGLHNHHTTKSFSRTPGK
modifications: Synthetic murine B7-DC fusion protein with signal peptide

How the values were obtained:
[1] = test system: Treg; CD4+ T cells expressing high PD-1; experiment: T cell analysis (Treg, PD-1+/CD4+ T cells) in CT26 tumor-bearing mice; format: in vivo, Balb/C mice
Method: (§1) On Day 9, mice were injected with 100 mg/kg of CTX, IP. Twenty four hours later, on Day 10, mice were treated with 100 ug of 137-DC-Ig. […] Two naïve mice and 4 mice from other groups were removed from the study on Day 11 (2 days post CTX) and Day 16 (7 days post CTX) for T cell analysis. […] Mice implanted with tumor cells intended to have more PD-1+/CD4+ T cells in the draining LN compared with naïve mice.
as §1, with “IP.” for “IP. Twenty four hours later, on Day 10, mice were treated with 100 ug of 137-DC-Ig.”

[2] = test system: SP-1 mouse prostate tumor cells; experiment: Metastatic prostate lung tumor model (SP-1), survival; format: in vivo, B10.D2 mice; settings: CTX 50 mg/kg Day 5, 12, 19; B7-DC-Ig 5 mg/kg Day 6, 13, 20
Method: SP-1 cells were isolated from mouse lungs that were metastasized from. TRAMP prostate tumor cell injection. B10.D2 mice were first injected with 3×10^5 SP-1 cells via tail vein injection. On Day 5, 12 and 19, mice were injected with 50 mg/kg of CTX where was indicated. […] Here, “NT” refers to “not treated”.
The CTX mice received 3 doses of CTX, 50 mg/kg, on Day 5, 12 and 19.

[3] = test system: CT26 colorectal tumor cells; experiment: Established CT26 colorectal tumor model (subcutaneous); settings: CTX 100 mg/kg on day 10 alone
Excerpt: Balb/C mice at age of 9 to 11 weeks were implanted subcutaneously with 1.0×10^5 CT26 colorectal tumor cells.

[4] = test system: P815 mastocytoma; experiment: P815 mastocytoma tumor model; format: in vivo, DBA/2 mice
Method: P815 mastocytoma cells were derived from DBA/2 mice after methylcholanthrene (MCA) treatment. Injection of 5×10^4 cells SC can result in mortality approximately 35 days post tumor inoculation.
DBA/2 mice (6-10 weeks of age, females) were first challenged with 5×10^4 live P815 cells injected SC in the flank. Six days later, the mice were treated with murine B7-DC-Ig via IP injection. […] Control groups were treated with vehicle only or with murine IgG. Tumor size was measured with digital calipers every 2-3 days. Mice were euthanized and defined as dead when their tumor size reached or exceeded 1000 mm^3, according to protocols approved by the Institutional Animal Care and Use Committee (IACUC) of the American Red Cross (ARC; the site of Amplimmune's vivarium). Surviving tumor free mice were re-challenged with P815 tumor cells on Day 52.
The tumor-free mice were then re-challenged with 5×10^4P815 cells administered to the flank opposite the primary inoculation site on Day 52.

[5] = number of mice, 5 per group, P815 cells SC, treatment IP biw 3 weeks starting Day 6

Molecule | Treg in the spleen vs tumor-implanted vehicle-injected mice ([1]; Day 11, 2 days post CTX 100 mg/kg IP) | mice survived on Day 100 [2] | outcome of mice (tumor growth/survival) [3] | mice responded to treatment ([4]; 100 μg per injection (approximately 5 mg/kg) IP, 2 times per week, up to 6 doses) | # Tumor <500 mm^3 [4, 5] | # Tumor free [4, 5] | # Tumor ≧500 mm^3 [4, 5] | mice in which tumor was eradicated ([4]; of 5 treated mice) | mice showing delayed tumor growth during treatment ([4]; of 5 treated mice) | tumor status after re-challenge with P815 cells on Day 52 ([4]; tumor-free mice re-challenged on opposite flank, followed through 74 days after primary inoculation) | CD4+ T cells expressing high PD-1 ([1]; Day 16, 7 days post CTX and 6 days post B7-DC-Ig 100 ug)
O=P1(N(CCCl)CCCl)NCCCO1 (stereo not drawn) [CTX, cyclophosphamide, reference compound] | significantly lower | 17% | died as a result of tumor growth or were euthanized | – | – | – | – | – | – | – | –
B1 | – | 17% | – | Four of 5 | 2 | 2 | 1 | two | two | remained tumor free | significantly lowered
